Experimental data: US20100291088A1

Columns and labels:
Assay in all cases: cell-based or functional assay
[1] = molecular target: natural human IL-18 (human) (UniProt Q14116)
(4C/A)-huIL-18 (human) = (4C/A)-huIL-18 (human) (UniProt Q14116)
NEM-huIL-18 (human) = NEM-huIL-18 (human) (UniProt Q14116)

B1: Murine anti-human IL-18 mAb (125-2H) (antibody, from another filing, V domains shown)
VH: EIQLQQSGPELVKPGASVKVSCKASGYSFTDYFIYWVKQSHGKSLEWIGDIDPYNGDTSYNQKFRDKATLTVDQSSTTAFMHLNSLTSEDSAVYFCARGLRFWGQGTLVTVSA
VL: DIQMTQSPSSLSASLGERVSLTCRASQDIGSKLYWLQQEPDGTFKRLIYATSSLDSGVPKRFSGSRSGSDYSLTISSLESEDFVDYYCLQYASSPYTFGGGTKLAIKR
WBA neutralization potency in vitro (IC50, nM) [1]: 3 nM
KG-1 neutralization potency in vitro (IC50, nM) ((4C/A)-huIL-18 (human)): 0.2 nM

B2: 268 (antibody, V domains shown)
VH: ZVQLVESGGGVVQPGRSLRLSCAASGFTFRNYGLHWVRQAPGKGLEWVAVIWYDGSNKYYADSVKGRFTISRDNSKNTLYLQMNSLRAEDTAVYYCARESYYYYGMDVWGQGTTVTVSS
VL: EIVMTQSPATLSVSPGERATLSCRASQSFNSNLVWYQQKPGQAPRLLIYGASTRATGIPARFSGSGSGTEFTLTISSLQSEDFAVYYCQQYNNWTWTFGQGTKVEIKR
KG-1 Assays (IC50, M) (NEM-huIL-18 (human)): 7e-09 M
